According to patent US20090324601A1 (published 2009):
Numbering of substitutions follows the chain as printed. Blank lines part the entries; values can stand above or below the binder they belong to.

Tests used:
c-kit = c-kit (UniProt P10721 26-520, limits assumed); experiment: method not described
PDGFR-beta = PDGFR-beta (UniProt P09619 33-530, limits assumed); experiment: method not described
FLT3 = FLT3 (UniProt P36888 27-541, limits assumed); experiment: method not described
CSF-1R = CSF-1R (UniProt P07333 20-512, limits assumed); experiment: method not described
[1] = target: PDGFR-alpha on MG-63 cells (human, UniProt P16234 24-1089); experiment: cell-based or functional assay; also: test concentration or dose not given here
Sequence of PDGFR-alpha on MG-63 cells (P16234 24-1089): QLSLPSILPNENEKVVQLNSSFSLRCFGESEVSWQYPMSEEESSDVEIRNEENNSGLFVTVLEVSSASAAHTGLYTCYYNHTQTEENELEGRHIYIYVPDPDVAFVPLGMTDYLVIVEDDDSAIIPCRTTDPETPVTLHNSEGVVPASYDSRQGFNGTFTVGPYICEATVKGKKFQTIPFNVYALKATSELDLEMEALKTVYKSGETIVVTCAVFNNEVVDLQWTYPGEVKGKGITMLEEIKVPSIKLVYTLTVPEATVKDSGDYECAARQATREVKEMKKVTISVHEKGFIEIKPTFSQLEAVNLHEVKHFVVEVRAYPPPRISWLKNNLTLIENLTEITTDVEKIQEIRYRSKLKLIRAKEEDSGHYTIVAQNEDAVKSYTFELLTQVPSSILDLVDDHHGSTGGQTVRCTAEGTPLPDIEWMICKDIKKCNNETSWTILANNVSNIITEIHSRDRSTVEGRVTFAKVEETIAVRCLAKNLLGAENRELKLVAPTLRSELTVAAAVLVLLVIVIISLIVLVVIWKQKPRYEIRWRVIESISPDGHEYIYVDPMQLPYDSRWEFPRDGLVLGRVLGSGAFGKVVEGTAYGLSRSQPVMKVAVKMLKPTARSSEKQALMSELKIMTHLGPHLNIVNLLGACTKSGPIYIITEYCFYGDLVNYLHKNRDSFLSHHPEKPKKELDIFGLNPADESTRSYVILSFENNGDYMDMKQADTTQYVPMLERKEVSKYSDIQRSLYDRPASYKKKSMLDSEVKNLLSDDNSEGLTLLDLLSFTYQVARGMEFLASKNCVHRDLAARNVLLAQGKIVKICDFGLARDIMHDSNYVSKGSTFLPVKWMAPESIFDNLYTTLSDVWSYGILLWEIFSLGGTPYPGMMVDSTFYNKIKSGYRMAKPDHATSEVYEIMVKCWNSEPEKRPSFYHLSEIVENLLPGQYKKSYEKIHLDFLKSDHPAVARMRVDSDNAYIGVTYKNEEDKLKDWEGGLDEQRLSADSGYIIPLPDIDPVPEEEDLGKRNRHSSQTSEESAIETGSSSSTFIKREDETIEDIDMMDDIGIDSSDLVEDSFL

Sequence of PDGFR-beta (P09619 33-530 limits assumed): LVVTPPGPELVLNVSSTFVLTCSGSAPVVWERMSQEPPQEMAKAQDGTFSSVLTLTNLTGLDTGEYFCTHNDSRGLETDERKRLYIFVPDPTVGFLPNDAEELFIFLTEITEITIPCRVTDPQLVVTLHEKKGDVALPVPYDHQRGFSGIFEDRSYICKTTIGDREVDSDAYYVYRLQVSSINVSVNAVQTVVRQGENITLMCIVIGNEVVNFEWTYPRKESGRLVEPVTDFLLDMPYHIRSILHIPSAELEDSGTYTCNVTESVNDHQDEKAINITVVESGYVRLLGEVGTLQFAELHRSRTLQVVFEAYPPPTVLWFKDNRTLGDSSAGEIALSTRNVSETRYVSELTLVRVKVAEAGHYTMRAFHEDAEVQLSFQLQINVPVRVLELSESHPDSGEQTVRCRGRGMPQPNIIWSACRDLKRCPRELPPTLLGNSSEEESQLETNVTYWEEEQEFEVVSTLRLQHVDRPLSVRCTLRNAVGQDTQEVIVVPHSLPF
Sequence of c-kit (P10721 26-520 limits assumed): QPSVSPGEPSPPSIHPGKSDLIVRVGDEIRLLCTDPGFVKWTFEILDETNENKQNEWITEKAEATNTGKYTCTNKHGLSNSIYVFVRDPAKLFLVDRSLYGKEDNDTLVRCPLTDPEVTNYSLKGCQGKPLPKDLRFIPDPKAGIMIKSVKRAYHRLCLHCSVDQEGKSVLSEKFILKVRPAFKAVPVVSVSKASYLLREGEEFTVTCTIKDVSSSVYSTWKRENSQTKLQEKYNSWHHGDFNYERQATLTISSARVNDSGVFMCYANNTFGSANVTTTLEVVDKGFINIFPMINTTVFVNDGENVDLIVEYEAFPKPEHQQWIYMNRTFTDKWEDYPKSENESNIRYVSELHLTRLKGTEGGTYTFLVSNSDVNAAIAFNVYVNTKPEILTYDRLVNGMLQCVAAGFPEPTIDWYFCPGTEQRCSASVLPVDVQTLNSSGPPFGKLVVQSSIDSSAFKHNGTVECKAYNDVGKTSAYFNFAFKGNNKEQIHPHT
Sequence of CSF-1R (P07333 20-512 limits assumed): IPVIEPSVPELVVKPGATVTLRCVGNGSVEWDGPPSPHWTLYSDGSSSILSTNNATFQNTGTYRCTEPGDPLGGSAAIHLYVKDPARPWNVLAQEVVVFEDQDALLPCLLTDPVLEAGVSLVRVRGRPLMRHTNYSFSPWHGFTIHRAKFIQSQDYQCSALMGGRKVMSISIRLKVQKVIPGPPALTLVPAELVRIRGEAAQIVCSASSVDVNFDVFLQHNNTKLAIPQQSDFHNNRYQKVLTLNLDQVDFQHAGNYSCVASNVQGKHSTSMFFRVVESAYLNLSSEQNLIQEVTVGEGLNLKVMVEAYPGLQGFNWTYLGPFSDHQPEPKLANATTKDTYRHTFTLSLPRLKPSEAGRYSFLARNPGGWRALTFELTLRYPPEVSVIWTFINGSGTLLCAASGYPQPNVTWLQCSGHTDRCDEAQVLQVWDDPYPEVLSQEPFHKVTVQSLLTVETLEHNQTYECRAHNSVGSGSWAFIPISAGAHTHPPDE

binding result (c-kit): no binding
binding result (PDGFR-beta): no binding
binding result (FLT3): no binding
binding result (CSF-1R): no binding
B2: 2.2071.1.3 (antibody, V domains shown)
VH: QVQLVESGGGLVKPGGSLRLSCAASGFTFSDYYMNWIRQAPGKGLEWVSYISSSGSIIYYADSVKGRFTISRDNAKNSLYLQMNSLRAEDTAVYYCARDGRIVARGMDVWGQGTTVTVSS
VL: DIQMTQSPSSLSASVGDRVTLTCRASHSINRYINWYQQKPGKAPKLLIYAASSLQSGVPSRFSGNGSGTDFTLTISSLQPEDFATYYCQQSYSTPPITFGQGTRLEIT
notes: Variable regions only

binding result (c-kit): no binding
binding result (PDGFR-beta): no binding
binding result (FLT3): no binding
binding result (CSF-1R): no binding
B6: 3.472.1.1 (antibody, V domains shown)
VH: QVQLVESGGGVVQPGRSLRLSCAASGFTFSSYGMHWVRQAPGKGLEWVAVIWYDRSNKYYVDSVKGRFTISRDNSKNTLYLQMNSLRAEDTAVYYCAGGRSRGAFDYWGQGTLVTVSS
VL: DIQMTQSPSSVSASVGDRVTITCRASQDISSWLAWYQQKPGKAPKLLIFAASSLQSGVPSRFSGSGSGTDFTLTISSLQPEDFATYYCQRTSSFPRTFGQGTKVEIK
notes: Variable regions only

binding result (c-kit): no binding
binding result (PDGFR-beta): no binding
binding result (FLT3): no binding
binding result (CSF-1R): no binding
B7: 3.457.3.1 (antibody, V domains shown)
VH: B6 VH with V61A, Y107F
VL: B6 VL with D28G, P40A, F49Y, A50S, S92N
notes: Variable regions only

binding result (c-kit): no binding
binding result (PDGFR-beta): no binding
binding result (FLT3): no binding
binding result (CSF-1R): no binding
B8: 3.772.2 (antibody, V domains shown)
VH: B6 VH with V61A, Y107F
VL: B6 VL with P40A, F49Y, S92N
notes: Variable regions only

binding result (c-kit): no binding
binding result (PDGFR-beta): no binding
binding result (FLT3): no binding
binding result (CSF-1R): no binding
B9: 2.351.3 (antibody, V domains shown)
VH: QVQLVQSGAEVKKPGASVKVSCKASGYTFIGYYLHWVRQAPGQGLEWMGSINPNSGGTNYAQKFQGRVTMIRDTSINTAYMELSRLRSDDTAVYYCARDKRITMVRGVHYLYYGWDVWGQGTTVTVSS
VL: DIQMTQSPSSLSASVGDRVTITCRASQVISNYLAWYQQKPGKVPQLLIYAASTLQSGVPSRFSGSGSGTDFTLTISSLQPEDVATYYCQNYKSAPWTFGQGTKVEIK
notes: Variable regions only

Second part, the binder before the results:

B1: 2.796.2 (antibody, V domains shown)
VH: B2 VH with R101H, V103A
VL: B2 VL with L21I, H27Q, I29F, N30S, S56G, N65S, S91T, T94N, T108K
notes: Variable regions only
binding result (c-kit): no binding
binding result (PDGFR-beta): no binding
binding result (FLT3): no binding
binding result (CSF-1R): no binding

B3: 2.449.1.3 (antibody, V domains shown)
VH: B2 VH with D99E, V103A
VL: DIQMTQSPSSLSASVGDRVSITCRPSQSFSRYINWYQQKPGKAPKLLIHAASSLVGGVPSRFSGSGSGTDFTLTISSLQPEDFATYYCQQTYSNPPITFGQGTRLEMK
notes: Variable regions only
binding result (c-kit): no binding
binding result (PDGFR-beta): no binding
binding result (FLT3): no binding
binding result (CSF-1R): no binding

B4: 3.772.2 (antibody, V domains shown)
VH: B6 VH with V61A, Y107F
VL: B6 VL with P40A, F49Y, S92N
Average pTyr Inhibition [1]: 91%

B5: 3.87.1.1 (antibody, V domains shown)
VH: B6 VH with V61A
VL: B6 VL with D28G, S92N
notes: Variable regions only
binding result (c-kit): no binding
binding result (PDGFR-beta): no binding
binding result (FLT3): no binding
binding result (CSF-1R): no binding
